Columns and labels:
[1] = system: HER2 siRNA; assay: siRNA gel mobility shift assay; format: binding; details: 50 pmol siRNA, increasing protein
Source text: The gel was stained with ethidium bromide to visualize siRNA and siRNA-protein complexes.
One goal was to assemble a noncovalent siRNA conjugate. […] The duplex, which was obtained from Invitrogen (Carlsbad, CA, USA), has been established elsewhere to specifically eliminate HER2 transcripts and thus induce apoptosis (Choudhury et al., 2004; Faltus et al., 2004).

[2] = Ultrafiltration of HerPBK10-siRNA conjugates (100K mwco, high speed centrifugation); format: physicochemical
Source text: FIGS. 6A-6B depict, in accordance with an embodiment described herein, HerPBK10-siRNA form stable conjugates that can be isolated by ultrafiltration. Conjugates were made in 0.1M Hepes/OptimemI buffer for 20′-RT, as described above. […] Filtrates and retentates were collected and loaded onto either a 2% agarose (FIGS. 6A and 6B, left panel) or 5% PAGE/native gel (FIG. 6B, right panel). Gels were stained for Et-Br to visualize siRNA and siRNA-protein complexes.

[3] = system: IFN-alpha; assay: In vivo cytokine induction, blood IFN-alpha ELISA after IT injection; parameters: species or system mouse; details: 24 h after each IT injection, compared to saline control
Method: FIG. 16 depicts, in accordance with an embodiment herein, in vivo cytokine induction. Blood was collected from the mice treated in FIG. 15B at 24 h after each IT injection and relative IFN-alpha levels quantified by sandwich ELISA following manufacturer's protocol (PBL Biomedical Laboratories). Control, tumors receiving saline injections. *, P=0.05 compared to control (as determined by 2-tailed unpaired T test).
To examine whether cytokines contribute to the tumor reduction observed and described herein, blood was collected from the same mice at 24 h after each IT injection and assayed for interferon (TFN)-alpha. […] It is possible that its indirect contribution results from enhanced tumor delivery, penetration, retention. Together with the tumor-shrinkage observed from these injections, these findings provide additional evidence that the targeted carrier, HerPBK10, can deliver both siRNA-mediated silencing and cytokine-mediated cytotoxicity to induce two-pronged targeted destruction to tumor cells.

[4] = system: IFN-alpha; assay: IFN-alpha secretion by sandwich ELISA, MDA-MB-231 cells; format: cell-based, human; details: 24 h
Method: (§1) FIGS. 13A-13B depict, in accordance with an embodiment herein, cytokine induction. […] At 24 h after treatment, media was collected from above the cells and assayed for (FIG. 13A) IFN-alpha, or (FIG. 13B) IFN-beta titer by sandwich ELISA following manufacturer's protocol (PBL Biomedical Laboratories). *, P<0.01 (compared to untreated); **, P=0.01 (HER2+ vs HER2− cells); †, P<0.05 (compared to untreated). Statistical significances determined by 2-tailed t tests.
(§2) To examine whether cytokines contribute to the targeted toxicity observed earlier, the media of HerPBK10-siRNA (T7-transcribed)-treated HER2+ MDA-MB-435 and HER2− MDA-MB-231 cells were collected and assayed by ELISA for interferons alpha and beta. […] Given the overall low level of cytokine detected in the medium by all treatments, these differences are likely to have little relevance.

[5] = system: HER2+ human breast cancer cells; assay: Survival of HER2+ cells in culture after targeted conjugate (summary); format: cell-based; details: depending on the cell line
Source text: The inventors designed HerPBK10 to penetrate HER2+ cells by combining the ‘Her’ domain for binding heregulin receptors, which have an increased ligand affinity on HER2+ tumor cells, and the membrane lysis and intracellular trafficking features of the ‘PB’ domain, which is derived from the cell-entry functions of the Ad capsid. Binding and transport of nucleic acids can be mediated by the polylysine, ‘K10’ domain. […] Using in vivo fluorescence imaging, it was observed that the targeting ligand used here specifically accumulates at HER2+ tumor tissue in mice while evading accumulation in other tissues. It was also observed that HerPBK10 could mediate the uptake of a Cy3-labeled oligonucleotide in HER2+ cells. […] Associated with this reduction was substantial target cell death.

[6] = siRNA stability in serum, agarose gel electrophoresis; format: in vitro ADME, bovine; details: 100% serum, 1 h at 37° C.
Source text: We examined the stability of siRNA conjugates in whole serum. […] Ethidium bromide staining of the agarose gel identifies the siRNA molecular size and relative concentration.

[7] = system: HER2+ (MDA-MB-435) tumors; assay: In vivo tumor targeting of Cy5-labeled siRNA, fluorescence imaging; parameters: species or system mouse; details: tail vein injection
Source text: FIGS. 23A-23C depict in accordance with an embodiment herein, monitoring in vivo tumor targeting. […] The mice were immediately monitored by in vivo fluorescence intensity imaging through our collaborators' imaging facility (Farkas lab, Cedars-Sinai Medical Center). 23C, Analysis of the fluorescence intensity contrast between tumor and non-tumor areas of 23A and 23B (graphs).

[8] = system: IFN-alpha; assay: IFN-alpha secretion by sandwich ELISA, MDA-MB-435 cells; format: cell-based, human; details: complex at 10 and 50 nM siRNA dose, HerPBK10 equivalent to 50 nM dose, 24 h
Method: as §1, §2

[9] = system: HER2+ MDA-MB-435 tumors; assay: Tumor growth after intratumoral injection; format: in vivo, mouse; details: two IT injections a week apart, 1.5 nmoles siRNA
Method: FIGS. 15A-15B depict, in accordance with an embodiment herein, effect on tumor growth. Female (6-8 week) nude mice were inoculated with human HER2+ MDA-MB-435 cancer cells by subcutaneous flank injections of 1×10^7 cells per injection. At 4-6 weeks after implant, weekly measurements were taken to quantify tumor volume and track growth. […] Complex was prepared as described in FIG. 14. FIG. 15A, representative mice at week 4 with tumors indicated by arrows.
Before testing for targeted toxicity of HerPBK10-siRNA, the inventors assessed cytotoxic potential in vivo after intratumoral (IT) injection of complexes in tumor-bearing mice. […] Blood was also collected after each injection to assess cytokine levels. […] Even though the complex was not delivered intravenously but rather by IT injection, there still appears to be an advantage to the targeted complex with regard to tumor toxicity.

[10] = system: MDA-MB-231 (HER2−) cells; assay: Cell survival (crystal violet) after targeted or lipo-mediated siRNA delivery; format: cell-based, human
Method: (§3) Complexes were prepared as described in FIG. 2. Un, untreated. In FIG. 12A, *, P<0.02 (HER2+ vs HER2− cells). In FIG. 12B, *, P<0.05 (compared to untreated). Significant differences determined by 2-tailed t tests.

[11] = system: MDA-MB-435 (HER2+) cells; assay: as above; format: cell-based, human
Method: as §3

[12] = system: MDA-MB-435 (HER2+) cells; assay: HerDox targeted toxicity in vitro, separate cultures; format: cell-based, human; details: 10× molar excess
Method: All treatments, N=3. FIG. 27A. Comparing cytotoxicity to HER2+ (MDAMB-435) and HER2− (MDA-MB-231) cells in separate cultures. Left, Relative survival (as % of untreated cells) on day 3 of treatment. Right, Micrograph of live cells after treatment. Control, mock (HBS) treatment. FIG. 27B, Receptor specificity of cytotoxicity. […] FIG. 27C, Toxicity to cells displaying differential HER2. Cytotoxicities from HerDox titrations were assessed on each cell line by metabolic assay and confirmed by crystal violet stain on day 3 of treatment. CD50 values (shown in log scale) were determined by non-linear regression analyses of HerDox killing curves using GraphPad Prism. The relative HER2 level of each cell line is shown next to each CD50 value. FIG. 27D, Targeting in a mixed MDA-MB-435(HER2+,GFP−)/MDA-MB-231(HER2−,GFP+) cell culture. Survival was determined by calculating the relative doubling time (DT) of experimental (exp) cells normalized by mock-treated (con) cells based on crystal violet stains (total cells) and GFP fluorescence (MDAMB-231 cells), and applying DTMDA-MB-435=DTTotal-DTMDA-MB-231 as previously described. Relative survival is shown for Day 2 of treatment. FIG. 27E, Targeted glioma cell death in vitro. U251 cells were treated once with the indicated HerDox (and competitive inhibitor where indicated) or Dox doses and measured for cell survival at the indicated time points after treatment. * P<0.05 compared to Mock.
For all in vitro treatments, cell lines were grown for ˜36 h after plating (104/well in 96-well dishes) to allow receptor re-expression, followed by media replacement with new media containing indicated constructs in reduced volume at the indicated final molarities for 4 h with rocking, followed by supplementation with additional media and continued growth for the indicated time periods. Except for the experiments performed on the U251 glioma cells (which received a one-time treatment), cells received these treatments daily while separate sets of wells were assessed for cell death by either metabolic assay (CellTiter Promega Corporation, Madison, WI, USA) or crystal violet stain each day. Where indicated, cells received competitive inhibitor (eHRG) at 10× molar excess for 30 min-1 h at 4° C. before treatment. Treatment of mixed (HER2+/HER2−) cell cultures with HerDox or Dox (0.5 uM), and cell surface receptor subunit level determination were performed as previously described.

PB: penton base segment of adenovirus serotype 5 [reference compound]
siRNA electromobility [1]: did not

B1: HerPBK10-siRNA: noncovalent conjugate of HerPBK10 with anti-HER2 siRNA bound via electrophilic interaction (conjugate)
chain: LPPRLKEMKSQESAAGSKLVLRCETSSEYSSLRFKWFKNGNELNRKNKPQNIKIQKKPGKSELRINKASLADSGEYMCKVISKLGNDSASANITIVESNEIITGMPASTEGAYVSSESPIRISVSTEGANTSSSTSTSTTGTSHLVKCAEKEKTFCVNGGECFMVKDLSNPSRYLCKCQPGFTGARCTENVPMKVQNQEKAEELYMRRAAMYEEGPPPSYESVVSAAPVAAALGSPFDAPLDPPFVPPRYLRPTGGRNSIRYSELAPLFDTTRVYLVDNKSTDVASLNYQNDHSNFLTTVIQNNDYSPGEASTQTINLDDRSHWGGDLKTILHTNMPNVNEFMFTNKFKARVMVSRLPTKDNQVELKYEWVEFTLPEGNYSETMTIDLMNNAIVEHYLKVGRQNGVLESDIGVKFDTRNFRLGFDPVTGLVMPGVYTNEAFHPDIILLPGCGVDFTHSRLSNLLGIRKRQPFQEGFRITYDDLEGGNIPALLDVDAYQASLKDDTEQGGGGAGGSNSSGSGAEENSNAAAAAMQPVEDMNDHAIRGDTFATRAEEKRAEAEAAAEAAAPAAQPEVEKPQKKPVIKPLTEDSKKRSYNLISNDSTFTQYRSWYLAYNYGDPQTGIRSWTLLCTPDVTCGSEQVYWSLPDMMQDPVTFRSTRQISNFPVVGAELLPVHSKSFYNDQAVYSQLIRQFTSLTHVFNRFPENQILARPPAPTITTVSENVPALTDHGTLPLRNSIGGVQRVTITDARRRTCPYVYKALGIVSPRVLSSRTFKKKKKKKKKK
Free siRNA in 100K filtrates [2]: low to no detection of free siRNA | circulating IFN-alpha [3]: elevated circulating IFN-alpha | IFN-alpha secretion [4]: little affected | reduction in HER2+ cell survival [5]: up to 85% | State of the siRNA (ethidium bromide staining) [6]: intact | tumor retention [7]: tumor retention | fluorescence intensity contrast between tumors and non-tumor areas ([7]; all time points, compared to free siRNA): preferential tumor accumulation | IFN-alpha secretion [8]: substantially elevated | tumor growth [9]: average reduction in tumor growth | cell survival [10]: little to no effect | cell survival [11]: dose-dependent reduction in survival

B2: eHRG: competitive inhibitor, competing ligand of the heregulin receptor (protein, UniProt Q02297 20-242, looked up)
extracellular domain: SGKKPESAAGSQSPALPPRLKEMKSQESAAGSKLVLRCETSSEYSSLRFKWFKNGNELNRKNKPQNIKIQKKPGKSELRINKASLADSGEYMCKVISKLGNDSASANITIVESNEIITGMPASTEGAYVSSESPIRISVSTEGANTSSSTSTSTTGTSHLVKCAEKEKTFCVNGGECFMVKDLSNPSRYLCKCQPGFTGARCTENVPMKVQNQEKAEELYQKR
modifications: extracellular domain
effect of competitive inhibitor on cell killing by HerDox [12]: prevented HER2+ cell killing
